Measurements taken from the nanobody polyreactivity screen of Harvey et al. (2022).

Test: yeast display, Sf9 membrane polyspecificity reagent, FACS + sequencing; frameworks hold sequencing errors
Outline: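 Polyreactivity labels are assigned by the sorting gate from which each nanobody was recovered. The gates were low and high (top ~1%), set on anti-HA fluorescence for expression and streptavidin fluorescence for reagent binding. Before sorting, galactose-induced (36–48 hours) yeast display cells were stained for 1 hour at 4 °C with 10% biotinylated, detergent-solubilized Sf9 membrane reagent.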

Row | Sequence | polyreactivity (PSR sort gate)
1 | QVQLVESGGGLVQAGGSLRLSCAASGSIFPYYAMGWYRQAPGQEREFVASISSVTSTYADSVKGRFTISRDNAKNTVYLQMNSQKPEDPAVYYCAADRAYSWYSVSRYNYWGQGTQVTVSS | low polyreactivity
2 | QVQLVESGGGLVQAGGSLRLSCAASGSIFPYYTMGWYRQAPGKERELVAAINYSGASTYYADSVKGRFTISRDNAKNTVYLQMNSLKPEDTAVYYCAADYPPLYRKYVYWGQGTQVTVSS | low polyreactivity
3 | QVQLVESGGGLVQAGGSLRLSCAASGSIFPYYVMGWYRQAPGKERELVAAISTSDGSTYADSVKGRFTISRDNAKNTVYLQMNSLKPEDTAVYYCAVANVYYEGYDYWGQGTQVTVSS | low polyreactivity
4 | QVQLVESGGGLVQAGGSLRLSCAASGSIFQAYVMGWYRQAPGKERELVATIDRRGGITYYADSVKGRFTISRDNAKNTVYLQMNSLKPEDTAVYYCATRTRLAQYSRGRYRYDYWGQGTQVTVSS | high polyreactivity
5 | QVQLVESGGGLVQAGGSLRLSCAASGSIFQFYTMGWYRQAPGKERELVAAISSGGTRRYYADSVKGRFTISRDNAKNTVYLQMNSLKPEDTAVYYCAAPWSSSWSGVRTRMGYWGQGTQVTVSS | high polyreactivity
6 | QVQLVESGGGLVQAGGSLRLSCAASGSIFQGNAMGWYRQAPGKERDLVAAISGGDSTNYADSVKGRFTISRDNAKNNVYLQMNSLKPEDTAVFYCNALSHWAPASYEYDYWGQGTQVTVSS | low polyreactivity
7 | QVQLVESGGGLVQAGGSLRLSCAASGSIFQGNVMGWYRPAPGKERELVAAISYSGDSTYYADSVKGRFTISRDNAKNTVYLQMNRLKPEDSAVYYCYAYRNRYGYRTSSRRYGYWGQGTQVTVSS | high polyreactivity
8 | QVQLVESGGGLVQAGGSLRLSCAASGSIFQGYAMGWYRKAPGKERELVAAITSSGGSTRYADSVKGRFTISRDNAKNTVYLQMNSLKPEDTAVYYCAARYKWPYDYWGQGTQVTVSS | high polyreactivity
9 | QVQLVESGGGLVQAGGSLRLSCAASGSIFQHYAMGWYRQAPGKEREFVAAISGRGGGTYYADSVKGRFTISRDNAKNTVYLQMNSLKPEDTAVYYCAADYRGSYWRYYYWGQGTQVTVSS | high polyreactivity
10 | QVQLVESGGGLVQAGGSLRLSCAASGSIFQIVYAMGWYRQAPGKERELVAAISRGGSTYYADSVKGRFTISRDNAKNTVYLQMNSLKPEDTAVYYCAADIVELSPRGVYHFDYWGQGTQVTVSS | high polyreactivity
11 | QVQLVESGGGLVQAGGSLRLSCAASGSIFQKYAMGWYRPAPGKERELVAAITSSGSTNYADSVKGRFTISRDNAKNTVYLQMNSLKPEDTAVYYCAADRYAGYYSWYYPLWSSKDDYWGQGTQVTVSS | low polyreactivity
12 | QVQLVESGGGLVQAGGSLRLSCAASGSIFQKYTMGWYRQAPGKERELVAAITRSGGSTYYADSVKGRFTISRDNAKNTVYLQMNSLKPEDSAVYYCNKRYIPWAYDYWGQGTQVTVSS | high polyreactivity
13 | QVQLVESGGGLVQAGGSLRLSCAASGSIFQQYDRGWYRQAPGKDREFVAAISSSGGSTYYADSVKGRFTISRDNAKNTDYLQMKSLKAEDSAVYYCAVDTIGYTYVDYLHGSGEFGYWGQGTQVTVSS | low polyreactivity
14 | QVQLVESGGGLVQAGGSLRLSCAASGSIFQRNAIGWSRQAPGKERELVAAITTTGGITHYADSVKGRFTISRDNAKNTVYLQMNSLKPEDTAVYYCAASNEVPWRFPDDYWGQGTQVTVSS | low polyreactivity
15 | QVQLVESGGGLVQAGGSLRLSCAASGSIFQRNAMGWYRQAPGKERELVASISFSDGTTYYADSVKGRCTISRDNAKNTVYLQMNSLKPEDTAVYYCAKKAIVSDQWDKYDYWGQGTQVTVSS | low polyreactivity
16 | QVQLVESGGGLVQAGGSLRLSCAASGSIFQVNAMGWYRQAPGKERELVASITTSGGSTYYADSVKGRFTISRDNAKNTVYLQMNSLKPEDTAVYYCAADHWSQDYDYWGQGTQVTVSS | low polyreactivity
